Experiments:
[1] = target: T1, full length human EpCAM on cells (human, UniProt P16422 24-314); experiment: flow cytometry on CHO-S cells transfected with human EpCAM
T1 construct: the cell line is named under assay; also called EpCAM on DiFi, HPAF-II and A549 tumor cells; CHO-S cells transfected with full length human EpCAM
T1 sequence: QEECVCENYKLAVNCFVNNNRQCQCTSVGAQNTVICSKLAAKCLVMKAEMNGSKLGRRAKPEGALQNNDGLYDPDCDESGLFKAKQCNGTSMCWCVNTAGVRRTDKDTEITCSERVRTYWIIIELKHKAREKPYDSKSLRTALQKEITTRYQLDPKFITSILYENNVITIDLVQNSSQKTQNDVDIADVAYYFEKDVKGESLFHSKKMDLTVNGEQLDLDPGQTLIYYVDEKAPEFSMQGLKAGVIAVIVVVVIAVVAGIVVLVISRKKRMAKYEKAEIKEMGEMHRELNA

[2] = target: T2, full length mouse EpCAM on CHO-S cells (mouse, UniProt Q99JW5 24-315); experiment: flow cytometry on CHO-S cells transfected with mouse EpCAM
T2 sequence: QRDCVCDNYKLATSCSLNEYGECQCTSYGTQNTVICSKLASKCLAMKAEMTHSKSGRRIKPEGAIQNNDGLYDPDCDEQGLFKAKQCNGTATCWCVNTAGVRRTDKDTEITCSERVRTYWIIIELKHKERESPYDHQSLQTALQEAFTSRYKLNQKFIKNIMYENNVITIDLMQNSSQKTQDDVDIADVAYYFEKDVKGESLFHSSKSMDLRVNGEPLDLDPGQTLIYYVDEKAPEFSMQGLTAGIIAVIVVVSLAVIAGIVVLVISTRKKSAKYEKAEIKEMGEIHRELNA

[3] = target: T3, full length cynomolgus monkey EpCAM on CHO-S cells (cynomolgus monkey, UniProt Q1WER1 24-314 (rhesus entry)); experiment: flow cytometry on CHO-S cells transfected with cynomolgus monkey EpCAM
T3 sequence: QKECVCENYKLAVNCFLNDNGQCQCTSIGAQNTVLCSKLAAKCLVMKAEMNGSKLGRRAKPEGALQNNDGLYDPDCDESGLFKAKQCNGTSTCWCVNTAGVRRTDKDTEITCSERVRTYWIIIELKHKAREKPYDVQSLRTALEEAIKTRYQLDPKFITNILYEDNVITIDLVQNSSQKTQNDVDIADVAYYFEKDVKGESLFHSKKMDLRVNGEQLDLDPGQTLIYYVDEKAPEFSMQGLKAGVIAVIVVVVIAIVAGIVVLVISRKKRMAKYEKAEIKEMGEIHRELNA

[4] = target: T4, recombinant human EpCAM (R&D systems, cat no 9277-EP) (human, UniProt P16422 24-265); experiment: BLI (Octet HTX); His-tagged human EpCAM on anti-Penta-HIS sensors, antibody as analyte; 1:1 global full fit
T4 construct: also called human EpCAM extracellular domain
T4 sequence: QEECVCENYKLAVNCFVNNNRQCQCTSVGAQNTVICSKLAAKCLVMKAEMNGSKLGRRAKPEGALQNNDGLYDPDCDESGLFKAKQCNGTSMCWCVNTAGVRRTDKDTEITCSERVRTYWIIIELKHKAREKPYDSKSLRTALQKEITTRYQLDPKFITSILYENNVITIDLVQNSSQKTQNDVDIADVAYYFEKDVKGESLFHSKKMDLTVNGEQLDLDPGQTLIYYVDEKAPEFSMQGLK

[5] = target: T4, recombinant human EpCAM (R&D systems, …); experiment: BLI (Octet HTX); His-tagged human EpCAM on anti-Penta-HIS sensors, antibody 1.56-100 nM as analyte
[6] = target: T1, full length human EpCAM on cells; experiment: flow cytometry on DiFi, HPAF-II and A549 tumor cells

B1: bsIgG1-b12-FEAL/EpCAM-323-A3-FEAR (bispecific antibody)
heavy 1: QVQLVQSGAEVKKPGASVKVSCQASGYRFSNFVIHWVRQAPGQRFEWMGWINPYNGNKEFSAKFQDRVTFTADTSANTAYMELRSLRSADTAVYYCARVGPYSWDDSPQDNYYMDVWGKGTTVIVSSASTKGPSVFPLAPSSKSTSGGTAALGCLVKDYFPEPVTVSWNSGALTSGVHTFPAVLQSSGLYSLSSVVTVPSSSLGTQTYICNVNHKPSNTKVDKRVEPKSCDKTHTCPPCPAPEFEGGPSVFLFPPKPKDTLMISRTPEVTCVVVAVSHEDPEVKFNWYVDGVEVHNAKTKPREEQYNSTYRVVSVLTVLHQDWLNGKEYKCKVSNKALPAPIEKTISKAKGQPREPQVYTLPPSREEMTKNQVSLTCLVKGFYPSDIAVEWESNGQPENNYKTTPPVLDSDGSFLLYSKLTVDKSRWQQGNVFSCSVMHEALHNHYTQKSLSLSPG
light 1: EIVLTQSPGTLSLSPGERATFSCRSSHSIRSRRVAWYQHKPGQAPRLVIHGVSNRASGISDRFSGSGSGTDFTLTITRVEPEDFALYYCQVYGASSYTFGQGTKLERKRTVAAPSVFIFPPSDEQLKSGTASVVCLLNNFYPREAKVQWKVDNALQSGNSQESVTEQDSKDSTYSLSSTLTLSKADYEKHKVYACEVTHQGLSSPVTKSFNRGEC
heavy 2: QIQLVQSGPELKKPGETVKISCKASGYTFTNYGMNWVRQASGEGLKWMGWINTYTGEPTYGEDFKGRFAFSLETSASTAYLQINNLKNEDTATYFCARFGNYVDYWGQGTTLTVSSASTKGPSVFPLAPSSKSTSGGTAALGCLVKDYFPEPVTVSWNSGALTSGVHTFPAVLQSSGLYSLSSVVTVPSSSLGTQTYICNVNHKPSNTKVDKRVEPKSCDKTHTCPPCPAPEFEGGPSVFLFPPKPKDTLMISRTPEVTCVVVAVSHEDPEVKFNWYVDGVEVHNAKTKPREEQYNSTYRVVSVLTVLHQDWLNGKEYKCKVSNKALPAPIEKTISKAKGQPREPQVYTLPPSREEMTKNQVSLTCLVKGFYPSDIAVEWESNGQPENNYKTTPPVLDSDGSFFLYSRLTVDKSRWQQGNVFSCSVMHEALHNHYTQKSLSLSPG
light 2: DIVMTQAAFSNPVTLGTSASISCRSSKNLLHSNGITYLYWYLQKPGQSPHLLIYQMSNLASGVPDRFSSSGSGTDFTLRISRVEAEDVGVYYCAQNLEIPRTFGGGTKLEIKRTVAAPSVFIFPPSDEQLKSGTASVVCLLNNFYPREAKVQWKVDNALQSGNSQESVTEQDSKDSTYSLSSTLTLSKADYEKHKVYACEVTHQGLSSPVTKSFNRGEC
- binding result [1]: binds
- binding result [2]: binds
- binding result [3]: binds

B2: BisG2amm-EpCAM-323-A3-AALT/m4-1BB-3H3-AAKR (bispecific antibody, mouse IgG2a, kappa)
heavy 1: QIQLVQSGPELKKPGETVKISCKASGYTFTNYGMNWVRQASGEGLKWMGWINTYTGEPTYGEDFKGRFAFSLETSASTAYLQINNLKNEDTATYFCARFGNYVDYWGQGTTLTVSSAKTTAPSVYPLAPVCGDTTGSSVTLGCLVKGYFPEPVTLTWNSGSLSSGVHTFPAVLQSDLYTLSSSVTVTSSTWPSQSITCNVAHPASSTKVDKKIEPRGPTIKPCPPCKCPAPNAAGGPSVFIFPPKIKDVLMISLSPMVTCVVVDVSEDDPDVQISWFVNNVEVLTAQTQTHREDYNSTLRVVSALPIQHQDWMSGKEFKCKVNNKALPAPIERTISKPKGSVRAPQVYVLPPPEEEMTKKQVTLTCMVTDFMPEDIYVEWTNNGKTELNYKNTEPVLDSDGSYLMYSKLTVEKKNWVERNSYSCSVVHEGLHNHHTTKSFSRTPG
light 1: DIVMTQAAFSNPVTLGTSASISCRSSKNLLHSNGITYLYWYLQKPGQSPHLLIYQMSNLASGVPDRFSSSGSGTDFTLRISRVEAEDVGVYYCAQNLEIPRTFGGGTKLEIKRADAAPTVSIFPPSSEQLTSGGASVVCFLNNFYPKDINVKWKIDGSERQNGVLNSWTDQDSKDSTYSMSSTLTLTKDEYERHNSYTCEATHKTSTSPIVKSFNRNEC
heavy 2: EMQLVESGGGLVQPGRSMKLSCAGSGFTLSDYGVAWVRQAPKKGLEWVAYISYAGGTTYYRESVKGRFTISRDNAKSTLYLQMDSLRSEDTATYYCTIDGYGGYSGSHWYFDFWGPGTMVTVSSAKTTAPSVYPLAPVCGDTTGSSVTLGCLVKGYFPEPVTLTWNSGSLSSGVHTFPAVLQSDLYTLSSSVTVTSSTWPSQSITCNVAHPASSTKVDKKIEPRGPTIKPCPPCKCPAPNAAGGPSVFIFPPKIKDVLMISLSPMVTCVVVDVSEDDPDVQISWFVNNVEVLTAQTQTHREDYNSTLRVVSALPIQHQDWMSGKEFKCKVNNKALPAPIERTISKPKGSVRAPQVYVLPPPEEEMTKKQVTLTCMVKDFMPEDIYVEWTNNGKTELNYKNTEPVLDSDGSYFMYSRLRVEKKNWVERNSYSCSVVHEGLHNHHTTKSFSRTPG
light 2: DIQMTQSPSLLSASVGDRVTLNCRTSQNVYKNLAWYQQKLGEAPKLLIYNANSLQAGIPSRFSGSGSGTDFTLTISSLQPEDVATYFCQQYYSGNTFGAGTNLELKRADAAPTVSIFPPSSEQLTSGGASVVCFLNNFYPKDINVKWKIDGSERQNGVLNSWTDQDSKDSTYSMSSTLTLTKDEYERHNSYTCEATHKTSTSPIVKSFNRNEC
notes: Mouse IgG2a bispecific made by controlled Fab-arm exchange; one EpCAM arm, so monovalent for EpCAM; also called BsIgG2amm-EpCAM-323-A3-AALT/m4-1BB-3H3-AAKR; BisIgG2amm-EpCAM-323-A3-AALT/m4-1BB-3H3-AAKR
- Kd [4]: 3.2 nM
- koff [4]: 0.0011 s⁻¹
- kon [4]: 340000 M⁻¹ s⁻¹
- Response [5]: 1.21 nm

B3: IgG1-b12-FEAL (antibody, V domains shown)
VH: QVQLVQSGAEVKKPGASVKVSCQASGYRFSNFVIHWVRQAPGQRFEWMGWINPYNGNKEFSAKFQDRVTFTADTSANTAYMELRSLRSADTAVYYCARVGPYSWDDSPQDNYYMDVWGKGTTVIVSS
VL: EIVLTQSPGTLSLSPGERATFSCRSSHSIRSRRVAWYQHKPGQAPRLVIHGVSNRASGISDRFSGSGSGTDFTLTITRVEPEDFALYYCQVYGASSYTFGQGTKLERKR
notes: also called negative control antibody
- binding result [6]: no binding (tested: up to 50 µg/mL)

Source: patent US20230295335A1 (published 2023)
